Data as given in US7052898B2, “Thermostable isomerase and use hereof, in particular for producing tagatose” (Bioneer A/S, priority 2001, dated 2006).
Read-outs that look alike come from different tables or passages of the source.

Columns and labels:
[1] = test system: Lactobacillus gayonii L-arabinose isomerase; settings: read-out: Km for L-arabinose; Reference 5: Nakamatu and Yamanaka (1969); cited from earlier work
[2] = test system: Lactobacillus plantarum L-arabinose isomerase; settings: read-out: Km for L-arabinose; Reference 4: Heath et al. (1958); cited from earlier work
[3] = test system: Aerobacter aerogenes L-arabinose isomerase; settings: read-out: Km for L-arabinose; Reference 1: Yamanaka and Wood (1966); cited from earlier work
[4] = test system: Escherichia coli L-arabinose isomerase; settings: read-out: Km for L-arabinose; Reference 3: Patrick and Lee (1968); cited from earlier work
[5] = test system: Mycobacterium smegmatis L-arabinose isomerase; settings: read-out: Km for L-arabinose; Reference 6: J. Bacteriol. 133: 413-414 (1978); cited from earlier work
[6] = cited from earlier work
[7] = test system: L-arabinose isomerase from T. mathranii; experiment: Metal ion requirement: reactivation of EDTA-dialysed enzyme; format: biochemical, Thermoanaerobacter mathranii; settings: enzyme previously dialysed against 5 mM EDTA, metal salt added
Procedure: (§1) Enzyme sample, 10-50 μl, was mixed with 950 μl of assay reagent and incubated at 65° C. for 60 min.

[8] = substrate: OC1OC[C@H](O)[C@H](O)[C@H]1O; experiment: purified protein, by the assay type; settings: other: apparent Km; T. mathranii enzyme produced in E. coli; pH 6.9; 65.0 °C
[9] = Bioconversion of D-galactose to D-tagatose with free enzyme; format: biochemical; settings: 65° C.
Procedure: (§2) The obtained concentrations of the ketoses L-ribulose, D-tagatose or D-fuculose, respectively, were determined by the cysteine-carbazol-sulfuric acid method (Dische, Z. and Borenfreund, E. (1951) J. Biol. Chem. 192: 583-587). Samples were incubated at room temperature for 60 min and the absorbance at 560 nm was measured in a microplate reader. Standard curves showing the colour response of 0-5 mM ketose were made with D-tagatose and D-ribulose, since L-ribulose was not commercially available. (No standard curve was obtained for D-fuculose which was not commercially available.)
Control samples without enzyme were treated similarly. Periodically, samples were taken and the concentration of D-tagatose was determined by the cystein-carbazol-sulfuric acid method as described above. The results are shown in Table 2.2A (30% D-galactose) and 2.2B (60% D-galactose).

[10] = Temperature dependence, D-galactose assay; format: biochemical; settings: temperature range of about 60-75° C.
Procedure: as §1, §2

[11] = pH dependence, D-galactose assay; format: biochemical; settings: D-galactose assays at pH 4, 5, 6, 7, 8 and 9
Procedure: as §1, §2
The buffer used for these assays was a mixture of 25 mM acetic acid, 25 mM 2-[N-morpholino]ethanesulfonic acid (MES), 5 mM MnCl2, and 25 mM tris[hydroxymethyl]-aminomethane (TRIS), which was titrated with HCl or NaOH.

[12] = Substrate specificity: D-galactose activity relative to L-arabinose activity; format: biochemical; settings: molar ratio of keto-sugar, substrate 0.5 M, pH 6.9, 65° C.
Procedure: as §1, §2
The ratio was calculated from the cysteine-carbazol-sulfuric acid colour responses and the standard curves generated with ribulose and tagatose, respectively.

[13] = Substrate specificity: other aldo-hexoses, aldo-pentoses and deoxy-sugar; format: biochemical
Procedure: as §1, §2

[14] = Substrate specificity: D-fucose colour response relative to L-arabinose; format: biochemical; settings: 0.5 M D-fucose, cysteine-carbazol-sulfuric acid method
Procedure: as §1, §2

[15] = end-product inhibition; cited from earlier work
[16] = initial D-galactose 30% (1.67 M), pH 6.9, 0 h
[17] = initial D-galactose 30% (1.67 M), pH 6.9, 24 h
[18] = initial D-galactose 30% (1.67 M), pH 6.9, 48 h
[19] = initial D-galactose 30% (1.67 M), pH 6.9, 72 h
[20] = initial D-galactose 60% (3.33 M), pH 6.9, 0 h
[21] = initial D-galactose 60% (3.33 M), pH 6.9, 24 h
[22] = initial D-galactose 60% (3.33 M), pH 6.9, 48 h
[23] = initial D-galactose 60% (3.33 M), pH 6.9, 72 h

For `OC1OC[C@H](O)[C@H](O)[C@H]1O` (stereo partly drawn) [L-arabinose], the Km [1] is given as 55 mM, the Km [2] is given as 28 mM and the Km [3] is given as 33 mM. For the same molecule, the Km [4] was 60 mM and the Km [5] was ~30 mM.

For Lactobacillus plantarum, the “amount of ketose at equilibrium” value ([6]; 10° C.) is listed as 10%, the “amount of ketose at equilibrium” value ([6]; 25° C.) is listed as 14% and the “amount of ketose at equilibrium” value ([6]; 53° C.) is listed as 16%.

In the case of `[Cl][Mn][Cl]` [MnCl2], the “restored L-arabinose isomerase activity” value [7] is reported as 100%.

With `O=S(=O)([O-])[O-].[Fe+2]` [FeSO4] the “restored L-arabinose isomerase activity” value [7] was 76%.

B1: Thermoanaerobacter mathranii DSMZ 11426 L-arabinose isomerase (AraA), wild type, SEQ ID NO:2, produced in E. coli (Thermoanaerobacter mathranii subsp. … (protein)
chain: MQTKKKPQIGFLGIMQELYDDMLPGITERQEKYAREVIEQLQDVADFHFPKAAKNRQDIEHIVKEFNEKDLDGIMIVMLTYGPATNIVNALRNNKLPIMLANIQPVPTVTEDWDMGDLTYNQGVHGAQDTANAILRMGIKCPIITEEWHSEEFKKFVGDWAKAVQTIKALRNMKIAQFGRMHGMYDILGDDAAFTRKIGPQINQEYIGEVYRYMETATEEEINAVIEENRKNFYIDPNLSEESHRYAARLQIGFKKFLINKGYDGFTAHFDVFKGDGRFKQIPMMAASNLMAEGYGYAAEGDAVTASLVAAGHVLIGDAHFTEMYAMDFKRNSILMSHMGEGNWKIARKDRPIKLIDRELGIGKLDNPPTIVFMAQPGPATLVSLVSLEGERYRLVVSKGEILDTEEAKYIEMPYFHFRPSTGVKACLDGWLTNGGTHHECLNLGDNTRRWKILCNLLDIEYVEV
In the case of B1, the Km [8] is reported as 80 mM and ˜80 mM.

B2: L-arabinose isomerase from T. mathranii: L-arabinose isomerase (araA gene product, 465 amino acid residues) of Thermoanaerobacter mathranii DSMZ 11426 produced in E. coli; used as cell extract (protein)
chain: MQTKKKPQIGFLGIMQELYDDMLPGITERQEKYAREVIEQLQDVADFHFPKAAKNRQDIEHIVKEFNEKDLDGIMIVMLTYGPATNIVNALRNNKLPIMLANIQPVPTVTEDWDMGDLTYNQGVHGAQDTANAILRMGIKCPIITEEWHSEEFKKFVGDWAKAVQTIKALRNMKIAQFGRMHGMYDILGDDAAFTRKIGPQINQEYIGEVYRYMETATEEEINAVIEENRKNFYIDPNLSEESHRYAARLQIGFKKFLINKGYDGFTAHFDVFKGDGRFKQIPMMAASNLMAEGYGYAAEGDAVTASLVAAGHVLIGDAHFTEMYAMDFKRNSILMSHMGEGNWKIARKDRPIKLIDRELGIGKLDNPPTIVFMAQPGPATLVSLVSLEGERYRLVVSKGEILDTEEAKYIEMPYFHFRPSTGVKACLDGWLTNGGTHHECLNLGDNTRRWKILCNLLDIEYVEV
modifications: Thermoanaerobacter matrahnii, araA sequence
notes: used as cell extract
For B2, the “Conc. of D-tagatose” value [9, 16] was 0 mM, the Percent bioconversion [9, 16] was 0 and the “Conc. of D-tagatose” value [9, 17] was 427 mM. The Percent bioconversion [9, 17] was 25, the “Conc. of D-tagatose” value [9, 18] was 450 mM and the Percent bioconversion [9, 18] was 26. The “Conc. of D-tagatose” value [9, 19] was 422 mM, the Percent bioconversion [9, 19] was 25 and the “Conc. of D-tagatose” value [9, 20] was 0 mM. The Percent bioconversion [9, 20] was 0, the “Conc. of D-tagatose” value [9, 21] was 462 mM and the Percent bioconversion [9, 21] was 14. For the same molecule, the “Conc. of D-tagatose” value [9, 22] was 542 mM, the Percent bioconversion [9, 22] was 16 and the “Conc. of D-tagatose” value [9, 23] was 622 mM. For the same molecule, the Percent bioconversion [9, 23] was 19, the “share of the maximum activity retained” value [10] was ≥ 70% and the “pH of highest activity” value [11] was 8. The “D-galactose activity as percent of the L-arabinose activity” value [12] was 21%, the “enzyme activity with D-arabinose” value ([13]; substrate D-arabinose) was “No significant enzyme activity” and the “enzyme activity with D-glucose” value ([13]; substrate D-glucose) was “No significant enzyme activity”. The “enzyme activity with D-mannose” value ([13]; substrate D-mannose) was “No significant enzyme activity”, the “enzyme activity with D-ribose” value ([13]; substrate D-ribose) was “No significant enzyme activity” and the “enzyme activity with D-xylose” value ([13]; substrate D-xylose) was “No significant enzyme activity”. The “enzyme activity with L-fucose” value ([13]; substrate L-fucose) was “No significant enzyme activity”, the “enzyme activity with L-ribose” value ([13]; substrate L-ribose) was “No significant enzyme activity” and the “colour response with D-fucose as percent of the response with L-arabinose” value [14] was 46%.

B3: β-glycosidase from Sulfolobus solfataricus: extremely thermostable β-glycosidase from the thermoacidophilic archaeon Sulfolobus solfataricus, used as lactase (protein, UniProt P22498 1-489, looked up)
Beta-galactosidase: MYSFPNSFRFGWSQAGFQSEMGTPGSEDPNTDWYKWVHDPENMAAGLVSGDLPENGPGYWGNYKTFHDNAQKMGLKIARLNVEWSRIFPNPLPRPQNFDESKQDVTEVEINENELKRLDEYANKDALNHYREIFKDLKSRGLYFILNMYHWPLPLWLHDPIRVRRGDFTGPSGWLSTRTVYEFARFSAYIAWKFDDLVDEYSTMNEPNVVGGLGYVGVKSGFPPGYLSFELSRRAMYNIIQAHARAYDGIKSVSKKPVGIIYANSSFQPLTDKDMEAVEMAENDNRWWFFDAIIRGEITRGNEKIVRDDLKGRLDWIGVNYYTRTVVKRTEKGYVSLGGYGHGCERNSVSLAGLPTSDFGWEFFPEGLYDVLTKYWNRYHLYMYVTENGIADDADYQRPYYLVSHVYQVHRAINSGADVRGYLHWSLADNYEWASGFSMRFGLLKVDYNTKRLYWRPSALVYREIATNGAITDEIEHLNSVPPVKPLRH
For B3, the inhibition by galactose [15] is given as “not to be inhibited” and the inhibition by glucose [15] is given as “only moderately inhibited”.
